Substrate in data set [1]: Nc1ccc(C(=O)NCC(=O)O)cc1
Put plainly: TP_TRANSPORTER: uptake in membrane vesicle from MRP1-expressing HeLa cells. In kind it is functional, cell membranes.

Substrate in data set [2]: Nc1ccc(C(=O)NCC(=O)O)cc1
As to the kind of experiment: TP_TRANSPORTER: uptake in membrane vesicles from MRP2-expressing HEK cells. The data set is classed as functional, cell membranes, HEK293, Membrane vesicle.

B1: Multidrug resistance-associated protein 1 (Homo sapiens) (protein)
chain: MALRGFCSADGSDPLWDWNVTWNTSNPDFTKCFQNTVLVWVPCFYLWACFPFYFLYLSRHDRGYIQMTPLNKTKTALGFLLWIVCWADLFYSFWERSRGIFLAPVFLVSPTLLGITMLLATFLIQLERRKGVQSSGIMLTFWLVALVCALAILRSKIMTALKEDAQVDLFRDITFYVYFSLLLIQLVLSCFSDRSPLFSETIHDPNPCPESSASFLSRITFWWITGLIVRGYRQPLEGSDLWSLNKEDTSEQVVPVLVKNWKKECAKTRKQPVKVVYSSKDPAQPKESSKVDANEEVEALIVKSPQKEWNPSLFKVLYKTFGPYFLMSFFFKAIHDLMMFSGPQILKLLIKFVNDTKAPDWQGYFYTVLLFVTACLQTLVLHQYFHICFVSGMRIKTAVIGAVYRKALVITNSARKSSTVGEIVNLMSVDAQRFMDLATYINMIWSAPLQVILALYLLWLNLGPSVLAGVAVMVLMVPVNAVMAMKTKTYQVAHMKSKDNRIKLMNEILNGIKVLKLYAWELAFKDKVLAIRQEELKVLKKSAYLSAVGTFTWVCTPFLVALCTFAVYVTIDENNILDAQTAFVSLALFNILRFPLNILPMVISSIVQASVSLKRLRIFLSHEELEPDSIERRPVKDGGGTNSITVRNATFTWARSDPPTLNGITFSIPEGALVAVVGQVGCGKSSLLSALLAEMDKVEGHVAIKGSVAYVPQQAWIQNDSLRENILFGCQLEEPYYRSVIQACALLPDLEILPSGDRTEIGEKGVNLSGGQKQRVSLARAVYSNADIYLFDDPLSAVDAHVGKHIFENVIGPKGMLKNKTRILVTHSMSYLPQVDVIIVMSGGKISEMGSYQELLARDGAFAEFLRTYASTEQEQDAEENGVTGVSGPGKEAKQMENGMLVTDSAGKQLQRQLSSSSSYSGDISRHHNSTAELQKAEAKKEETWKLMEADKAQTGQVKLSVYWDYMKAIGLFISFLSIFLFMCNHVSALASNYWLSLWTDDPIVNGTQEHTKVRLSVYGALGISQGIAVFGYSMAVSIGGILASRCLHVDLLHSILRSPMSFFERTPSGNLVNRFSKELDTVDSMIPEVIKMFMGSLFNVIGACIVILLATPIAAIIIPPLGLIYFFVQRFYVASSRQLKRLESVSRSPVYSHFNETLLGVSVIRAFEEQERFIHQSDLKVDENQKAYYPSIVANRWLAVRLECVGNCIVLFAALFAVISRHSLSAGLVGLSVSYSLQVTTYLNWLVRMSSEMETNIVAVERLKEYSETEKEAPWQIQETAPPSSWPQVGRVEFRNYCLRYREDLDFVLRHINVTINGGEKVGIVGRTGAGKSSLTLGLFRINESAEGEIIIDGINIAKIGLHDLRFKITIIPQDPVLFSGSLRMNLDPFSQYSDEEVWTSLELAHLKDFVSALPDKLDHECAEGGENLSVGQRQLVCLARALLRKTKILVLDEATAAVDLETDDLIQSTIRTQFEDCTVLTIAHRLNTIMDYTRVIVLDKGEIQEYGAPSDLLQQRGLFYSMAKDAGLV
For the protein B1, in data set [1], the Km turned out to be 372 µM.

B2: ATP-binding cassette sub-family C member 2 (Homo sapiens) (protein)
chain: MLEKFCNSTFWNSSFLDSPEADLPLCFEQTVLVWIPLGYLWLLAPWQLLHVYKSRTKRSSTTKLYLAKQVFVGFLLILAAIELALVLTEDSGQATVPAVRYTNPSLYLGTWLLVLLIQYSRQWCVQKNSWFLSLFWILSILCGTFQFQTLIRTLLQGDNSNLAYSCLFFISYGFQILILIFSAFSENNESSNNPSSIASFLSSITYSWYDSIILKGYKRPLTLEDVWEVDEEMKTKTLVSKFETHMKRELQKARRALQRRQEKSSQQNSGARLPGLNKNQSQSQDALVLEDVEKKKKKSGTKKDVPKSWLMKALFKTFYMVLLKSFLLKLVNDIFTFVSPQLLKLLISFASDRDTYLWIGYLCAILLFTAALIQSFCLQCYFQLCFKLGVKVRTAIMASVYKKALTLSNLARKEYTVGETVNLMSVDAQKLMDVTNFMHMLWSSVLQIVLSIFFLWRELGPSVLAGVGVMVLVIPINAILSTKSKTIQVKNMKNKDKRLKIMNEILSGIKILKYFAWEPSFRDQVQNLRKKELKNLLAFSQLQCVVIFVFQLTPVLVSVVTFSVYVLVDSNNILDAQKAFTSITLFNILRFPLSMLPMMISSMLQASVSTERLEKYLGGDDLDTSAIRHDCNFDKAMQFSEASFTWEHDSEATVRDVNLDIMAGQLVAVIGPVGSGKSSLISAMLGEMENVHGHITIKGTTAYVPQQSWIQNGTIKDNILFGTEFNEKRYQQVLEACALLPDLEMLPGGDLAEIGEKGINLSGGQKQRISLARATYQNLDIYLLDDPLSAVDAHVGKHIFNKVLGPNGLLKGKTRLLVTHSMHFLPQVDEIVVLGNGTIVEKGSYSALLAKKGEFAKNLKTFLRHTGPEEEATVHDGSEEEDDDYGLISSVEEIPEDAASITMRRENSFRRTLSRSSRSNGRHLKSLRNSLKTRNVNSLKEDEELVKGQKLIKKEFIETGKVKFSIYLEYLQAIGLFSIFFIILAFVMNSVAFIGSNLWLSAWTSDSKIFNSTDYPASQRDMRVGVYGALGLAQGIFVFIAHFWSAFGFVHASNILHKQLLNNILRAPMRFFDTTPTGRIVNRFAGDISTVDDTLPQSLRSWITCFLGIISTLVMICMATPVFTIIVIPLGIIYVSVQMFYVSTSRQLRRLDSVTRSPIYSHFSETVSGLPVIRAFEHQQRFLKHNEVRIDTNQKCVFSWITSNRWLAIRLELVGNLTVFFSALMMVIYRDTLSGDTVGFVLSNALNITQTLNWLVRMTSEIETNIVAVERITEYTKVENEAPWVTDKRPPPDWPSKGKIQFNNYQVRYRPELDLVLRGITCDIGSMEKIGVVGRTGAGKSSLTNCLFRILEAAGGQIIIDGVDIASIGLHDLREKLTIIPQDPILFSGSLRMNLDPFNNYSDEEIWKALELAHLKSFVASLQLGLSHEVTEAGGNLSIGQRQLLCLGRALLRKSKILVLDEATAAVDLETDNLIQTTIQNEFAHCTVITIAHRLHTIMDSDKVMVLDNGKIIECGSPEELLQIPGPFYFMAKEAGIENVNSTKF
Turning to B2, in data set [2], the Km is 880 µM.

Values taken from ChEMBL document CHEMBL2074311, “ATP-dependent para-aminohippurate transport by apical multidrug resistance protein MRP2” (Kidney Int, 2000).
